{
  "source": "patent US20240238374A1",
  "about": "“METHODS AND COMPOSITIONS FOR INDUCING BROWN ADIPOGENESIS” (ENERGESIS PHARMACEUTICALS, INC., priority 2021, published 2024)",
  "system": "Diet-Induced Obese (DIO) mouse",
  "test": "Diet-Induced Obese (DIO) mouse study: hFGF7 alone and with semaglutide, 28 days of dosing",
  "type": "in vivo, C57Bl/6 mice",
  "settings": "DIO mice",
  "protocol": "Obesity and insulin resistance, an early stage in the development of type 2 diabetes (also known as pre-diabetes), was induced in C57Bl/6 mice by feeding the mice with a high fat diet (Research Diets, Cat #D12492, 60% fat kcal) for 12 weeks starting at 6 weeks of age, and throughout the period of compound dosing. The mice were housed at 22-23° C. and abundant nestlets/bedding material was provided to allow the animals to maintain a microenvironment close to their thermoneutrality of 28-30° C., starting 2 weeks prior to the dosing period and for the full dosing period with a 12 h/12 h light/dark cycle. These environmental conditions are understood by those skilled in the art to reduce the stimulus for maintaining BAT, a thermogenic tissue that is recruited physiologically by cold stimulus, and permit a wider window for observing effects related to BAT recruitment.\nMice were dosed once per day by intraperitoneal injection (100 μl per mouse) with vehicle (9.6 mg/ml mannitol, 4.8 mg/ml sucrose, 0.37 mg/ml L-histidine, 0.025 mg/ml polysorbate 20 (Tween 20, CAS #9005-64-5), […], also referred to as EGS0501 in corresponding figures) dissolved in the vehicle for 28 days. In addition, some mice also received semaglutide (0.012 mg/kg=3 nmol/kg) every 3 days by intraperitoneal injection (100 μl per mouse) dissolved in the vehicle.\nBody weight was recorded every day and body composition (fat and lean mass with EchoMRI) was assessed at the end of the study (University of Cincinnati Mouse Metabolic Phenotyping Center). At the end of the dosing period, animals were fasted for 6 hours and euthanized by CO2, blood was collected, and plasma was isolated and frozen at −20° C. Plasma glucose, insulin and leptin levels were assessed at baseline and at the end of the dosing period (mice were fasted for 6 hours before all plasma collection) (University of Cincinnati Mouse Metabolic Phenotyping Center). Insulin sensitivity was determined by HOMA-IR.\nData from in vivo mouse studies are presented as means±SEM. Significance values were evaluated based on the unpaired two-tailed t-test versus vehicle using GraphPad Prism version 7 or 8 (GraphPad Software, San Diego, CA). To assess synergistic effects of A and B, the combination A+B was compared to the sum of A alone and B alone. To quantify synergistic effects, we used percent changes from baseline when baseline data were available and used the difference from vehicle for parameters without baseline data.",
  "data": [
    {"molecule": "hFGF7: recombinant human Fibroblast Growth Factor-7, also referred to as EGS0501; SEQ ID NO: 8 is the sequence for human FGF7 (protein, listed as Homo sapiens, (1)..(194) Fibroblast Growth Factor-7) MHKWILTWILPTLLYRSCFHIICLVGTISLACNDMTPEQMATNVNCSSPERHTRSYDYMEGGDIRVRRLFCRTQWYLRIDKRGKVKGTQEMKNNYNIMEIRTVAVGIVAIKGVESEFYLAMNKEGKLYAKKECNEDCNFKELILENHYNTYASAKWTHNGGEMFVALNQKGIPVRGKKTKKEQKTAHFLPMAIT", "values": [
      {"measurement": "plasma glucose compared to vehicle", "setting": "hFGF7 0.5 mg/kg ip once a day", "result": "significant effect"},
      {"measurement": "body weight compared to vehicle", "setting": "hFGF7 1 mg/kg ip once a day", "result": "significant decreases"},
      {"measurement": "epididymal white adipose (WATepi) depot weight compared to vehicle", "setting": "hFGF7 1 mg/kg ip once a day", "result": "significant decreases"},
      {"measurement": "insulin resistance index (HOMA-IR) compared to vehicle", "setting": "hFGF7 1 mg/kg ip once a day", "result": "significant decreases"},
      {"measurement": "plasma glucose compared to vehicle", "setting": "hFGF7 1 mg/kg ip once a day", "result": "significant decreases"},
      {"measurement": "plasma insulin compared to vehicle", "setting": "hFGF7 1 mg/kg ip once a day", "result": "significant decreases"},
      {"measurement": "plasma leptin compared to vehicle", "setting": "hFGF7 1 mg/kg ip once a day", "result": "significant decreases"}
    ]}
  ]
}
